According to patent US20140206628A1 (University of Washington, published 2014):
Read-outs that look alike come from different tables or passages of the source.

Assays:
[1] = molecular target: T1, A/South Carolina/1/1918 (H1N1) hemagglutinin ectodomain, biotinylated (Influenza A virus A/South …)
[2] = molecular target: T1, A/South Carolina/1/1918 (H1N1) …; remark: listed apart in the source
[3] = molecular target: T1, A/South Carolina/1/1918 (H1N1) …; remark: listed apart in the source
[4] = molecular target: T1, A/South Carolina/1/1918 (H1N1) …; remark: listed apart in the source

| Binder | Kd [1] | Kd [2] | fold increase of binding affinity relative to HB36 [3] | Kd [4] |
| --- | --- | --- | --- | --- |
| HB80.1 (Met26Thr, Asn36Lys) (designed binder) MASTRGSGRPWDFSENLAFELALAFTNKDTPDRWAKVAQYVSGRTPEEVKKHYEILVEDIKYIESGKVPFPNYRTTGGNMKTDEKRFRNLKIRLE | 7.5 nM | 7.5 nM | – | – |
| HB36.1 (Asp47Ser) (designed binder) MSNAMDGQQLNRLLLEWIGAWDPFGLGKDAYDVEAEAVLQAVYETESAFDLAMRIMWIYAFAFNRPIPFPHAQKLARRLLELKQAASSPLPLE | 5 nM | – | ~40 fold | 2 to 5 nM |
